In general, Kd refers to a measure of binding affinity in units of concentration. A lower Kd goes with tighter binding.

The text below walks through data of article PMC8906176.

The target in this assay is C4-AM2 monobody. Kind of assay: BLI. (BLI is a label-free optical method that tracks binding on a fibre tip over time.)

As to “SARS-CoV-2 S protein receptor-binding domain, Alpha variant (B.1.1.7) (from UniProt P0DTC2) (domain or fragment)”, the Kd is less than 0.01 nM.
In the case of “SARS-CoV-2 S protein receptor-binding domain, Beta variant (B.1.351) (from UniProt P0DTC2) (domain or fragment)”, the Kd was 6.3 nM.
